Residue numbers refer to the chain shown, from its start.
How the values were obtained:
[1] = target: human TGF-beta 1 (R&D Systems, Cat # 240-B/CF) (human) (UniProt P01137); assay: cell-based or functional assay
[2] = target: human TGF-beta 1 (R&D Systems, Cat # 240-B/CF) (human) (UniProt P01137); assay: Biacore SPR, calculated koff/kon
[3] = target: T1, human TGF-beta 3 (RDI, Cat # RDI-1036/CF) (human) (UniProt P10600); assay: ratio of Biacore Kd for TGF-β3 to Kd for TGF-β1
T1 sequence (looked up): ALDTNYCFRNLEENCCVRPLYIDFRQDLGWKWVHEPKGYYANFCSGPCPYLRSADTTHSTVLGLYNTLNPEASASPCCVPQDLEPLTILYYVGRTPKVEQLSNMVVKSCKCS

[4] = target: human TGF-beta 1 (R&D Systems, Cat # 240-B/CF) (human) (UniProt P01137); assay: Biacore SPR, mAb captured on Protein A, TGF-beta 1 injected
[5] = target: T1, human TGF-beta 3 (RDI, Cat # RDI-1036/CF) (human); assay: Biacore SPR, equilibrium fit, mAb captured on Protein A, TGF-β3 injected
[6] = target: human TGF-beta 1 (R&D Systems, Cat # 240-B/CF) (human) (UniProt P01137); assay: Biacore SPR, mAb captured on Protein A, 5 nM ligand injected; stoichiometry from captured signals
[7] = target: T2, latent TGF-beta 1 (UniProt P01137 30-390, limits assumed); assay: as above
T2 construct: Latent complex (pro-peptide with mature TGF-beta 1); also called Latent TGF-β1; latent form of TGF-beta 1
Protocol: (§1) BIAcore methods are used to determine the ability of invention mAb compositions to bind other entities, specifically the latent form of TGF-beta 1 or TGF-beta 3. All measurements are performed at room temperature. Samples are dissolved in HBS-EP buffer (150 mM sodium chloride, 3 mM EDTA, 0.01% (w/v) surfactant P-20, and 10 mM HEPES, pH7.4). Recombinant Protein A is immobilized on all four flow cells of a CM4 sensor chip at a level of 400-450 response units (RUs) using an amine coupling kit.
(§2) Binding is evaluated using multiple analytical cycles. Each cycle is performed at a flow rate of 100 μL/minute consisting of the following steps: injection of 15 μL of an antibody binding composition at 1 μg/mL, injection of 250 μL of either 5 nM TGF-beta 1, 5 nM latent TGF-beta 1, or 5 nM TGF-beta 3 followed by a short delay (5 min) for dissociation, and regeneration using two injections of 50 μL of 10 mM glycine hydrochloride, pH1.5. The amount of signal after capturing first the Mab, and then the ligand, are determined using the instrument control software. Since the signal is proportional to the mass of protein captured, the stoichiometry of the captured ligand is readily calculable (Table 4).

[8] = target: human TGF-beta 1 (R&D Systems, Cat # 240-B/CF) (human) (UniProt P01137); assay: calculated from KinExA Kd and kon
[9] = target: human TGF-beta 1 (R&D Systems, Cat # 240-B/CF) (human) (UniProt P01137); assay: KinExA 3000, equilibrium, Fab in solution
[10] = target: human TGF-beta 1 (R&D Systems, Cat # 240-B/CF) (human) (UniProt P01137); assay: KinExA 3000, Fab in solution, antigen on beads
[11] = target: T3, human TGF-beta 1 (R&D Systems, Cat # 240-B/CF) (human, UniProt P01137 279-390); assay: cell-based or functional assay
[12] = target: T3, human TGF-beta 1 (R&D Systems, Cat # …); assay: Biacore SPR, calculated koff/kon
Protocol: (§3) Alternate methods of measuring kinetic constants are known, for example: affinity of a binding composition for human TGF-beta 1 (R&D Systems, Cat #240-B/CF), TGF-beta 2 (RDI, Cat # RDI-1035) and TGF-beta 3 (RDI, Cat # RDI-1036/CF) is measured using a BlAcore® 2000 instrument. The BIAcore® utilizes the optical properties of surface plasmon resonance to detect alteration in protein concentration of interacting molecules within a dextran biosensor matrix. Except as noted, all reagents and materials are purchased from BIAcore® AB (Upsala, Sweden). All measurements are performed at room temperature. Samples are dissolved in HBS-EP buffer (150 mM sodium chloride, 3 mM EDTA, 0.01% (w/v) surfactant P-20, and 10 mM HEPES, pH7.4). Recombinant Protein A is immobilized on all four flow cells of a CM4 sensor chip at a level of 400-450 response units (RUs) using an amine coupling kit.
(§4) Binding is evaluated using multiple analytical cycles. Each cycle is performed at a flow rate of 50 μL/minute and consists of the following steps: injection of 12 μL of an antibody binding composition at 0.5 μg/mL, injection of 250 μL of TGF-beta 1 (starting at 5 nM and using two-fold serial dilutions to 0.13 nM for each cycle, with two injections for each concentration) followed by either a short (5 minutes) or long (120 minutes) delay for dissociation, and regeneration using two injections of 50VL of 10 mM glycine hydrochloride, pH1.5. Association and dissociation rates for each cycle are determined by fitting of the biosensor data using to a simple association model using ClampXP (Center for Biomolecular Interaction Analysis, Univ. of Utah) to extract the kₒₙ and koff rate constants; the equilibrium binding constant Kd is calculated using the relationship Kd=koff/kₒₙ. Model data for invention compositions are in Table 3 shown below.

[13] = target: T4, human TGF-beta 3 (RDI, Cat # RDI-1036/CF) (human, UniProt P10600 301-412); assay: ratio of Biacore Kd for TGF-β3 to Kd for TGF-β1
T4 construct: Bought recombinant protein; also called TGF-β3; TGF-p3
T4 sequence (looked up): T1 sequence (looked up)
Protocol: (§5) Affinities of binding composition mAbs for TGF-p3 are determined using BIAcore methods. All measurements are performed at room temperature. Samples are dissolved in HBS-EP buffer (150 mM sodium chloride, 3 mM EDTA, 0.01% (w/v) surfactant P-20, and 10 mM HEPES, pH7.4). Recombinant Protein A is immobilized on four flow cells of a CM4 sensor chip at a level of 400-450 response units (RUs) using an amine coupling kit. Binding is evaluated over multiple analytical cycles. Each cycle is performed at a flow rate of 100 μL/minute consisting of the following steps: injection of 15 μL of an antibody binding composition at 0.5 μg/mL, injection of 250 μL of TGF-β3 (starting at 5 nM and using two-fold serial dilutions to 0.13 nM for each cycle, with two injections for each concentration) followed by a short (5 minutes) delay for dissociation, and regeneration using two injections of 50VL of 10 mM glycine hydrochloride, pH1.5.
(§6) Affinities are determined based upon the equilibrium signal as reached at varying TGF-β3 concentrations by measuring the average signal during the last 10 seconds of the TGF-β3 injections, and then fitting the resulting signals at all of the TGF-β3 concentrations to a simple binding equilibrium model in SCRUBBER (Center for Biomolecular Interaction Analysis, Univ. of Utah). Model data determined for tested human mab composition of the invention of Kd and specificity calculated by dividing the Kd for TGF-β3 binding by the Kd for TGF-β1 binding (herein) is shown below in Table 5.

[14] = target: T3, human TGF-beta 1 (R&D Systems, Cat # …); assay: Biacore SPR, mAb captured on Protein A, TGF-beta 1 injected
Protocol: as §3, §4

[15] = target: T4, human TGF-beta 3 (RDI, Cat # …); assay: Biacore SPR, equilibrium fit, mAb captured on Protein A, TGF-β3 injected
Protocol: as §5, §6

[16] = target: T3, human TGF-beta 1 (R&D Systems, Cat # …); assay: Biacore SPR, mAb captured on Protein A, 5 nM ligand injected; stoichiometry from captured signals
Protocol: as §1, §2

[17] = target: T4, human TGF-beta 3 (RDI, Cat # …); assay: as above
Protocol: as §1, §2

[18] = target: T5, TGF-beta 1 mutein (R25K, K26R, V33I, P87T, V89L, K95T) (Homo sapiens (Human), UniProt P01137 279-390, Mature TGF-beta 1 is a disulfide-linked homodimer; one monomer chain is given.); assay: laser desorption/ionization time-of-flight MS on chips (Ciphergen)
T5 chain: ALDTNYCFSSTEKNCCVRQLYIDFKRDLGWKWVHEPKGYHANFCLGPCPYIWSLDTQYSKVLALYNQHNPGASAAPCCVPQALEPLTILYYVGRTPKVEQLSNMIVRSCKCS

T2 sequence (P01137 30-390 limits assumed): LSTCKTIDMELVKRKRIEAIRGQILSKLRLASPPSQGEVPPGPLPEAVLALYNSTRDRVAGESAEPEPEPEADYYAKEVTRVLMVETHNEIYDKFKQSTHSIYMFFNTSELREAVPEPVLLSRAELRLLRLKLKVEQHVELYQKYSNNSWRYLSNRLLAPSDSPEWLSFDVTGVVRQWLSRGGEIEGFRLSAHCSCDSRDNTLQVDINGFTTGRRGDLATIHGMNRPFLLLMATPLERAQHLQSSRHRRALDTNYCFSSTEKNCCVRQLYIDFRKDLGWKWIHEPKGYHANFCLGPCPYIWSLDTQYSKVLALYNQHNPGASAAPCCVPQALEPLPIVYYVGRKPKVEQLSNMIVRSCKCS

B1: mAb C27 (antibody, IgG4, V domains shown)
VH: QVQLVQSGAEVKKPGASVKVSCKASGYTFTDYNIHWVRQAPGQGLEWMGYIYPYDGETGYNQKFKSRVTMTTDTSTSTAYMELRSLRSDDTAVYYCARGYRAFEYWGQGTLVTVSS
VL: DIQMTQSPSSLSASVGDRVTITCRASSSVPYMHWYQQKPEKAPKSLIYATSNLAFGVPSRFSGSGSGTDFTLTISSLQPEDFATYYCQQWDLNPPAFGQGTKLEIK
B1 was tested. Which Fold Improvement in IC50 relative to mAb2471 (HT-2 cell proliferation assay) [1] did it give?
The Fold Improvement in IC50 relative to mAb2471 (HT-2 cell proliferation assay) was 401 fold.

What about the Kd [2] of the same binder?
Its Kd is 0.6 pM.

What about the Specificity (Kd, β3/Kd, β1) [3] of the same binder?
Its Specificity (Kd, β3/Kd, β1) is 3670 fold.

And the koff [4]?
The koff was 8e-06 s⁻¹.

What about the kon [4] of the same binder?
The kon was 1.3e+07 M⁻¹ s⁻¹.

What about the Kd [5] of the same binder?
Its Kd is 2200 pM.

What about the Stoichiometry of ligand binding [6] of the same binder?
Its Stoichiometry of ligand binding is 1.74.

And the Stoichiometry of ligand binding [7]?
The Stoichiometry of ligand binding was 0.08.

B2: Fab C27 (Fab, V domains shown)
VH: B1 VH
VL: B1 VL
Which koff [8] does the source give for B2 here?
The koff was 1.7e-05 s⁻¹.

And the Kd [9]?
Its Kd is 4.2 pM.

What about the kon [10] of the same binder?
The kon was 4.1e+06 M⁻¹ s⁻¹.

B3: mAb DM7 (antibody, IgG4, V domains shown)
VH: B1 VH with T28D, I34M, A102W, F103L, E104Y
VL: B1 VL with P30S, E40G, S45P, F55K
With B3 as the binder, how does the “Fold Improvement in IC50 relative to mAb2471 (HT-2 cell proliferation assay)” value [11] read?
The value was 140 fold.

And the Kd [12]?
Its Kd is less than 0.5 pM.

And the “Specificity (Kd, β3/Kd, β1)” value [13]?
The value was 2320 fold.

What about the koff [14] of the same binder?
Its koff is less than 7e-06 s⁻¹.

And the kon [14]?
The kon was 1.3e+07 M⁻¹ s⁻¹.

And the Kd [15]?
The Kd was 1160 pM.

And the “Stoichiometry of ligand binding” value [16]?
The value was 1.23.

And the “Stoichiometry of ligand binding” value [7]?
Its value is 0.04.

And the “Stoichiometry of ligand binding” value [17]?
The value was 0.54.

B4: mAb 1D11 (R&D Systems) (antibody, V domains shown)
VH: QVQLQQSGPELVRPGASVKLSCKASGYIFITYWMNWVKQRPGQGLEWIGQIFPASGSTNYNEMFEGKATLTVDTSSSTAYMQLSSLTSEDSAVYYCARGDGNYALDAMDYWGQGTSVTVSS
VL: DIVLTQSPASLAVSLGQRATISCRASESVDSYGNSFMHWYQQKSGQPPKLLIYLASNLESGVPARFSGSGSRTDFTLTIDPVEADDAATYYCQQNNEDPLTFGAGTKLEIK
Which “fold less binding of the TGF-beta 1 mutein relative to wild type TGF-beta 1” value [18] does the source give for B4 here?
The value was 2.5 fold.
